How the values were obtained:
[1] = molecular target: Recombinant human TGF-β1 (human) (UniProt P01137); assay: SPR, TGF-β1 coupled, rearrangement model, Kdapp
[2] = molecular target: Recombinant human TGF-β1 (human) (UniProt P01137); assay: SPR, TGF-β1 coupled, rearrangement model, kass#1
[3] = molecular target: Recombinant human TGF-β1 (human) (UniProt P01137); assay: SPR, TGF-β1 coupled, rearrangement model, Kdiss#1
[4] = molecular target: Recombinant human TGF-β1 (human) (UniProt P01137); assay: SPR, TGF-β1 coupled, rearrangement model, rearrangement step
[5] = molecular target: Recombinant human TGF-β1 (human) (UniProt P01137); assay: SPR, TGF-β1 coupled, rearrangement model, Kd 1 (initial binding step)

Chain of Recombinant human TGF-β1 (human) (P01137 279-390 limits assumed): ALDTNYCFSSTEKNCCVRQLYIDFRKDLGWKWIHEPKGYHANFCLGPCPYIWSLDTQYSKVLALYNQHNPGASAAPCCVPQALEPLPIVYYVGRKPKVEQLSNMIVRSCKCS

Kd [1]: 302 nM
kon [2]: 75000 M⁻¹ s⁻¹
koff [3]: 0.0535 s⁻¹
kass#2 [4]: 0.0029 s⁻¹
kd 2 (no unit) [4]: 0.73 no unit
kdiss#2 [4]: 0.00217 s⁻¹
Kd [5]: 713 nM
B1: untagged CtermTβRIIIED (receptor, UniProt P26342 576-782, looked up)
chain: RQLRNPSGFQGQLDGNATFNMELYNTDLFLVPSPGVFSVAENEHVYVEVSVTKADQDLGFAIQTCFLSPYSNPDRMSDYTIIENICPKDDSVKFYSSKRVHFPIPHAEVDKKRFSFLFKSVFNTSLLFLHCELTLCSRKKGSLKLPRCVTPDDACTSLDATMIWTMMQNKKTFTKPLAVVLQVDYKENVPSTKDSSPIPPPPPQIFH

Reference: patent US20070154994A1
